Data as given in paper PMC7327492 (2020).

B1: His-tagged 2x(LxxIxE) B56 inhibitor (designed binder)
chain: TGSTGSTGSTGSTGSLPRSSTLPTIHEEEELSLCTGSTGSTGSTGSTGSLPRSSTLPTIHEEEELSLC
B2: His-tagged 1x(LxxIxE) B56 inhibitor (designed binder)
chain: TGSTGSTGSTGSTGSLPRSSTLPTIHEEEELSLC
B3: His-tagged 4x(LxxIxE) B56 inhibitor (designed binder)
chain: TGSTGSTGSTGSTGSLPRSSTLPTIHEEEELSLCTGSTGSTGSTGSTGSLPRSSTLPTIHEEEELSLCTGSTGSTGSTGSTGSLPRSSTLPTIHEEEELSLCTGSTGSTGSTGSTGSLPRSSTLPTIHEEEELSLC

What follows are binders tested against Recombinant B56α (UniProt Q15172 1-486) (assay: ITC).
Recombinant B56α, sequence (Q15172 whole entry): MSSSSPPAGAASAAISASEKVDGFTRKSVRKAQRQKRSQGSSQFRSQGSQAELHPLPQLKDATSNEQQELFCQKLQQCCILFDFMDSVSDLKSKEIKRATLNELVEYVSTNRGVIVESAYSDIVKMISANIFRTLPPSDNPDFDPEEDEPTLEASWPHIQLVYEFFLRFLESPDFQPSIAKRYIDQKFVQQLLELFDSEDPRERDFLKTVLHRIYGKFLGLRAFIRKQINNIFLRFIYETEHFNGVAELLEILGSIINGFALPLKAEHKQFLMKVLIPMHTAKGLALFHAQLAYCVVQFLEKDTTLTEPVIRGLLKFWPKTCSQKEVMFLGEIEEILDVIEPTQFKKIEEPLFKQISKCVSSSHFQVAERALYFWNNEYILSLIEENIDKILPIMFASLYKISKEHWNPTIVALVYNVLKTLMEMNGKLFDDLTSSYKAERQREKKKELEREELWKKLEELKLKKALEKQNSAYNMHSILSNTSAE

Compared with B1, B2 is 6.5-fold higher in Kd: 200 nM for the first, 1300 nM for the second.

For B3, the Kd was 100 nM.
